This note sets out measurements from paper PMC6144786, “DNA binding with a minimal scaffold: structure–function analysis of Lig E DNA ligases” (Nucleic Acids Research, 2018).

The subject of one data set is Psy-Lig S215A. Nature of the data set: MST. To be noted: 5' phosphate on S24 at nick, MST: 50 mM Tris, 100 mM NaCl, 1 mM DTT, 5 mM EDTA, 1 mM ATP, 0.5% Tween, 40 nM DNA, incubated 4 C, read 25 C, EMSA: 50 mM Tris pH 8.0, 50 mM NaCl, 0.
A further data set relates to Psy-Lig R69A. Briefly: MST. The settings on record: 5' phosphate on S24 at nick, MST: 50 mM Tris, 100 mM NaCl, 1 mM DTT, 5 mM EDTA, 1 mM ATP, 0.5% Tween, 40 nM DNA, incubated 4 C, read 25 C, EMSA: 50 mM Tris pH 8.0, 50 mM NaCl, 0. Background: Mobility shift assays separate free from complexed probe on a gel.
Another data set has as its system Psy-Lig N144A. Briefly: MST. The settings on record: 5' phosphate on S24 at nick, MST: 50 mM Tris, 100 mM NaCl, 1 mM DTT, 5 mM EDTA, 1 mM ATP, 0.5% Tween, 40 nM DNA, incubated 4 C, read 25 C, EMSA: 50 mM Tris pH 8.0, 50 mM NaCl, 0.
For the next data set, the system named is Psy-Lig K25A. Nature of the data set: MST. To be noted: 5' phosphate on S24 at nick, MST: 50 mM Tris, 100 mM NaCl, 1 mM DTT, 5 mM EDTA, 1 mM ATP, 0.5% Tween, 40 nM DNA, incubated 4 C, read 25 C, EMSA: 50 mM Tris pH 8.0, 50 mM NaCl, 0.
For a further data set, the system named is Psy-Lig K193A. Briefly: MST. The settings on record: 5' phosphate on S24 at nick, MST: 50 mM Tris, 100 mM NaCl, 1 mM DTT, 5 mM EDTA, 1 mM ATP, 0.5% Tween, 40 nM DNA, incubated 4 C, read 25 C, EMSA: 50 mM Tris pH 8.0, 50 mM NaCl, 0.
A further data set deals with Psy-Lig K212A. Nature of the data set: MST. The settings on record: 5' phosphate on S24 at nick, MST: 50 mM Tris, 100 mM NaCl, 1 mM DTT, 5 mM EDTA, 1 mM ATP, 0.5% Tween, 40 nM DNA, incubated 4 C, read 25 C, EMSA: 50 mM Tris pH 8.0, 50 mM NaCl, 0.
The test system of a further data set is Psy-Lig R80A. Briefly: MST. To be noted: 5' phosphate on S24 at nick, MST: 50 mM Tris, 100 mM NaCl, 1 mM DTT, 5 mM EDTA, 1 mM ATP, 0.5% Tween, 40 nM DNA, incubated 4 C, read 25 C, EMSA: 50 mM Tris pH 8.0, 50 mM NaCl, 0.
In the next data set the test system is Psy-Lig K176A. Nature of the data set: MST. The settings on record: 5' phosphate on S24 at nick, MST: 50 mM Tris, 100 mM NaCl, 1 mM DTT, 5 mM EDTA, 1 mM ATP, 0.5% Tween, 40 nM DNA, incubated 4 C, read 25 C, EMSA: 50 mM Tris pH 8.0, 50 mM NaCl, 0.
The subject of data set [1] is Psy-Lig WT (Lig E DNA ligase). Nature of the data set: MST. The settings on record: 5' phosphate on S24 at nick, MST: 50 mM Tris, 100 mM NaCl, 1 mM DTT, 5 mM EDTA, 1 mM ATP, 0.5% Tween, 40 nM DNA, incubated 4 C, read 25 C, EMSA: 50 mM Tris pH 8.0, 50 mM NaCl, 0.
Another data set addresses T1, Ame-Lig (Alteromonas mediterranea, UniProt Z9I348I3L4).
T1 construct: predicted mature form, signal peptide omitted (cleavage between 21 and 22), codon-optimised synthetic gene in pDEST17; monomer in the asymmetric unit with nicked DNA
T1 sequence (Z9I348I3L4 2-297): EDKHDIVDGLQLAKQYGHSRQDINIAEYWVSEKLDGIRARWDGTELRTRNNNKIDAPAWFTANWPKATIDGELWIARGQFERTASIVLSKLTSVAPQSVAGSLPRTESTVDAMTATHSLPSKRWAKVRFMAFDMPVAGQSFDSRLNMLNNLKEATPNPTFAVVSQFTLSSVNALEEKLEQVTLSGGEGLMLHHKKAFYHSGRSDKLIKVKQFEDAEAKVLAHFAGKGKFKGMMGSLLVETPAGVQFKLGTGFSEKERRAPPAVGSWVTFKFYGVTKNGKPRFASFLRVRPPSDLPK
Nature of the data set: molecular beacon ligation assay. In kind it is biochemical. To be noted: 0.1 mM ATP, 300 nM nicked DNA substrate, 10 mM MgCl2, pH 8.0, 30 °C.

For the compound “AGGCCATGGCTGATATCGGA / TCCGAATTCGAGCTCCGTCG / CGACGGAGCTCGAATTCGGATCCGATATCAGCCATGGCCT [nicked 40-mer (MST)]”, the K half with Psy-Lig S215A came out at 1740 nM; in the data set with Psy-Lig R69A it was 3.08 µM; with Psy-Lig N144A it was 2450 nM; in the data set with Psy-Lig K25A it was 3.3 µM; in the data set on Psy-Lig K193A, 2550 nM; in the data set with Psy-Lig K212A it was 7.1 µM. Moreover, the K half in the data set on Psy-Lig R80A came to 3.62 µM; with Psy-Lig K176A it was 5.17 µM; in data set [1] it was 980 nM.

Take `Nc1ncnc2c1ncn2[C@@H]1O[C@H](COP(=O)(O)OP(=O)(O)OP(=O)(O)O)[C@@H](O)[C@H]1O` [ATP]: the “molecular beacon ligation assay” value at Ame-Lig was “Ligase activity of Ame-Lig and Psy-Lig mutants were measured by molecular beacon (MB) assay”.
